Source: US11453711B2, “Fusion proteins of GLP-1 and GDF15 and conjugates thereof” (BEIJING QL BIOPHARMACEUTICAL CO., LTD., priority 2019, dated 2022)
Numbering of substitutions follows the chain as printed.

B1: MLC018: fusion polypeptide SEQ ID NO: 265 conjugated with Moiety A at 52K of Linker (conjugate)
chain: HGEGTFTSDVSSYLEEQAAREFIAWLVRGGGGQEPGAQPGQEPGAQPGQEPGAQPGQEPGAQPGQEPGAQPGQEPGAQPGQEKGAQPGQEPGAQPGQEPGAQPGQEPGAQPARQGDHCPLGPGRCCRLHTVRASLEDLGWADWVLSPREVQVTMCIGACPSQFRAANLHAQIKTSLHRLRPDTVPAPCCVPASYNPMVLIQRTDTGVSLQTYDDLLARDCHCI
modifications: Moiety A conjugated at linker K52
B2: MLC103: fusion polypeptide SEQ ID NO: 390 conjugated with Moiety A at 71K of Linker (conjugate)
chain: B1 chain with Q81A, E82Q, K83P, Q89A, E90Q, Q97A, E98Q, Q102K, Q105A, E106Q
modifications: Moiety A conjugated at linker Lys71
B3: MLC104: fusion polypeptide SEQ ID NO: 391 conjugated with Moiety A at 76K of Linker (conjugate)
chain: B1 chain with Q81A, E82Q, K83P, Q89A, E90Q, Q97A, E98Q, Q105A, E106Q, P107K
modifications: Moiety A conjugated at linker Lys76
B4: MLC064: fusion polypeptide SEQ ID NO: 359 conjugated with Moiety A at 51K of Linker (conjugate)
chain: B1 chain with Q81A, E82K, K83P, Q89A, E90Q, Q97A, E98Q, Q105A, E106Q
modifications: Moiety A conjugated at linker K51
B5: MLC046: fusion polypeptide SEQ ID NO: 329 conjugated with Moiety A at 60K of linker (conjugate)
chain: B1 chain with Q81A, E82Q, K83P, Q89A, E90Q, P91K, Q97A, E98Q, Q105A, E106Q
modifications: Moiety A conjugated at linker K60
B6: MLC014: negative control, SEQ ID NO: 261: linker fused to N terminal of GDF15, CRM conjugated to lysine in the linker; GDF15 derivative (conjugate)
chain: SEPATSGQEKGQEPGQEPGQEPGQEPGQEPGAQPGAQPARQGDHCPLGPGRCCRLHTVRASLEDLGWADWVLSPREVQVTMCIGACPSQFRAANLHAQIKTSLHRLRPDTVPAPCCVPASYNPMVLIQRTDTGVSLQTYDDLLARDCHCI
modifications: CRM conjugated to linker lysine
notes: GDF15 derivative
B7: MLC027: fusion polypeptide SEQ ID NO: 274 conjugated with Moiety A at 55K of Linker (conjugate)
chain: HGEGTFTSDVSSYLEEQAAREFIAWLVRGGGGAQPGAQPGAQPGAQPGAQPGAQPGAQPGAQPGQEPGAQPGQEPGAQPGQEPGQKPGQEPGQEPGQEPGQEPGAQPGAQPARQGDHCPLGPGRCCRLHTVRASLEDLGWADWVLSPREVQVTMCIGACPSQFRAANLHAQIKTSLHRLRPDTVPAPCCVPASYNPMVLIQRTDTGVSLQTYDDLLARDCHCI
modifications: Moiety A conjugated at linker K55
B8: MLC043: fusion polypeptide SEQ ID NO: 326 conjugated with Moiety A at 26K of GLP-1 (conjugate)
chain: HGEGTFTSDVSSYLEEQAAKEFIAWLVRGGGGQEPGAQPGQEPGAQPGQEPGAQPGQEPGAQPGQEPGAQPGQEPGAQPGAQPGAQPGAQPARQGDHCPLGPGRCCRLHTVRASLEDLGWADWVLSPREVQVTMCIGACPSQFRAANLHAQIKTSLHRLRPDTVPAPCCVPASYNPMVLIQRTDTGVSLQTYDDLLARDCHCI
modifications: Moiety A conjugated at K26
B9: MLC045: fusion polypeptide SEQ ID NO: 328 conjugated with Moiety A at 1K and 55K of Linker (conjugate)
chain: HGEGTFTSDVSSYLEEQAAREFIAWLVRGGGKQEPGAQPGQEPGAQPGQEPGAQPGQEPGAQPGQEPGAQPGQEPGAQPGAQPGAKPGAQPGAQPGAQPGAQPGAQPGAQPARQGDHCPLGPGRCCRLHTVRASLEDLGWADWVLSPREVQVTMCIGACPSQFRAANLHAQIKTSLHRLRPDTVPAPCCVPASYNPMVLIQRTDTGVSLQTYDDLLARDCHCI
modifications: Moiety A conjugated at linker K1, K55
B10: MLC012: fusion polypeptide SEQ ID NO: 259 conjugated with Moiety A at 12K of Linker (conjugate)
chain: HGEGTFTSDVSSYLEEQAAREFIAWLVRGGGGQEPGQEPGQEKGQEPGQEPGQEPGQEPGQEPGQEPGQEPARQGDHCPLGPGRCCRLHTVRASLEDLGWADWVLSPREVQVTMCIGACPSQFRAANLHAQIKTSLHRLRPDTVPAPCCVPASYNPMVLIQRTDTGVSLQTYDDLLARDCHCI
modifications: Moiety A conjugated at linker K12
B11: MLC030: fusion polypeptide SEQ ID NO: 277 conjugated with Moiety A at 15K of Linker (conjugate)
chain: HGEGTFTSDVSSYLEEQAAREFIAWLVRGGGGQEPGQEPGQEPGQKPGQEPGQEPGQEPGQEPGAQPGAQPGAQPGAQPGAQPGAQPGAQPGAQPGAQPGAQPGAQPGAQPARQGDHCPLGPGRCCRLHTVRASLEDLGWADWVLSPREVQVTMCIGACPSQFRAANLHAQIKTSLHRLRPDTVPAPCCVPASYNPMVLIQRTDTGVSLQTYDDLLARDCHCI
modifications: Moiety A conjugated at linker K15

Experiment: Body weight and food intake in C57BL/6 mice, fusion protein conjugates, 30 nmol/kg daily 10 days
Format: in vivo
Description: 10 week old male C57BL/6 mice were injected everyday subcutaneously with 15 nmol/kg of the fusion protein conjugates (i.e., MLC002, MLC 004, MLC 005, MLC 006, MLC 007, MLC 008, and MLC 009) for 14 days. Food intake and body weight were measured daily and five animals were used for each treatment group. Body weight (BW) was monitored for each individual animal, but food intake for each group animals was measured together. Day 1 and Day 14 are first day and last day of molecule dosage. % BW loss=100*(BW on Day n-BW on Day 1)/(BW on Day 1). Cumulative food intake on Day n represents sum of food intake from Day 1 to Day n. Data are indicated as mean values and standard error (SEM) or pooled values. Statistical analysis was performed by One-way ANOVA. Body weight reduction on Day 11 is calculated by −1*(% BW loss−% BW loss of vehicle group); Cumulative food intake reduction is calculated by −100*(cumulative food intake-cumulative food intake of vehicle)/cumulative food intake of vehicle.
Data were calculated in the same way as described above. Day 1 and Day 10 are first day and last day of the administration.
MLC014 was used as a negative control. MLC014 has an amino acid sequence of SEQ ID NO: 261, which contains a linker fused to the N terminal of GDF15, with a CRM conjugated to the lysine residue in the linker. Tirzepatide was also used as a control.

| Molecule | Body weight reduction at 30 nmol/kg (% reduction compared to vehicle)(Day11) [%] | Cumulative food intake reduction at 30 nmol/kg (% reduction compared to vehicle)(Day11) [%] |
| --- | --- | --- |
| Tirzepatide [reference compound] | 10.5 | 23.0 |
| B1 | 23.5 | 48.1 |
| B2 | 23.3 | 36.2 |
| B3 | 22.7 | 29.4 |
| B4 | 24.0 | 43.6 |
| B5 | 24.6 | 41.4 |
| B6 | 9.5 | 27.3 |
| B7 | 19.1 | 40.7 |
| B8 | 17.4 | 30.5 |
| B9 | 20.6 | 27.8 |
| B10 | 30.6 | 37.2 |
| B11 | 22.0 | 29.1 |
